Target: acetylcholine receptor
Test: SPR, peptide at 10 uM, AchR immobilized

Row | Binder | Binding affinity [RU]
1 | KKAEER [6mer-1-679] | 30
2 | KREAER [6mer-1-690] | 21
3 | KKDPPR [6mer-1-680] | 27
4 | RKATVK [6mer-1-668] | 17
5 | RKHPKK [6mer-1-674] | 32
6 | RKPKAR [6mer-1-691] | 31
7 | KKNMVR [6mer-1-671] | 11
8 | KRCPWR [6mer-1-676] | 16
9 | KRDSMR [6mer-1-683] | 16
10 | KKKDIR [6mer-1-682] | 30
11 | KKIWKR [6mer-1-675] | 21
12 | RREWIK [6mer-1-687] | 23
13 | RKNTHK [6mer-1-692] | 22
14 | KKDWNR [6mer-1-670] | 11
15 | KRMAAK [6mer-1-678] | 25
16 | KKYEVR [6mer-1-686] | 25
17 | RRESWK [6mer-1-685] | 14
18 | KRDSPK [6mer-1-667] | 32
19 | KKCCFR [6mer-1-677] | 22
20 | KRCPVR [6mer-1-689] | 11
21 | RKDEVR [6mer-1-688] | 33
22 | KKAANK [6mer-1-666] | 18
23 | KRNMAK [6mer-1-669] | 23
24 | RRAMPK [6mer-1-673] | 16
25 | KKEWKK [6mer-1-681] | 32
26 | KRNNDR [6mer-1-684] | 20
27 | RKMEIR [6mer-1-672] | 17

The next lines start with the values.

Row | Binding affinity [RU] | Binder
28 | 19 | RKKMWK [6mer-1-700]
29 | 27 | KRFNHK [6mer-1-698]
30 | 22 | RKIDMK [6mer-1-693]
31 | 22 | KRHEDR [6mer-1-717]
32 | 12 | KRTEWR [6mer-1-705]
33 | 26 | KRFWPK [6mer-1-707]
34 | 24 | KKPSNK [6mer-1-712]
35 | 27 | KKDAEK [6mer-1-719]
36 | 29 | KRMKDR [6mer-1-706]
37 | 21 | KKMHHR [6mer-1-710]
38 | 28 | RRTTVR [6mer-1-699]
39 | 18 | KKHCNR [6mer-1-696]
40 | 29 | KKFKPK [6mer-1-709]
41 | 27 | RKYTKR [6mer-1-694]
42 | 18 | KRMMVK [6mer-1-715]
43 | 19 | RRATHR [6mer-1-711]
44 | 11 | RRMPFK [6mer-1-716]
45 | 23 | RKFKAR [6mer-1-718]
46 | 14 | KKKHEK [6mer-1-708]
47 | 31 | KRDWVK [6mer-1-702]
48 | 20 | KKATNK [6mer-1-713]
49 | 13 | RRPTNR [6mer-1-697]
50 | 25 | KRTSFK [6mer-1-714]
51 | 11 | RRKHKR [6mer-1-720]
52 | 13 | KRADVK [6mer-1-695]
53 | 16 | RRMCER [6mer-1-704]
54 | 13 | RRKTWR [6mer-1-701]
55 | 18 | KKFHPR [6mer-1-703]

Target: acetylcholine receptor
Test: SPR, peptide at 10 uM on immobilised AchR

Row | Binding affinity (RU) | Binder
56 | 121 | KRSYCK [6mer-1-61]
57 | 123 | KRVIQR [6mer-1-53]
58 | 135 | RRSYTR [6mer-1-67]
59 | 149 | KRRLLK [6mer-1-47]
60 | 126 | RKSVTR [6mer-1-58]
61 | 145 | KRLQCK [6mer-1-59]
62 | 145 | RKGLTK [6mer-1-45]
63 | 133 | RRWFTK [6mer-1-62]
64 | 137 | RRGIQR [6mer-1-56]
65 | 139 | RKSIQK [6mer-1-60]
66 | 144 | RRRVCK [6mer-1-54]
67 | 153 | RKLQLK [6mer-1-68]
68 | 127 | RRVLYK [6mer-1-51]
69 | 142 | KRLYQR [6mer-1-46]
70 | 147 | KKSISR [6mer-1-66]
71 | 133 | KRSIYR [6mer-1-55]
72 | 139 | KKVRTR [6mer-1-50]
73 | 154 | RKQFTK [6mer-1-64]
74 | 124 | RRWVRR [6mer-1-48]
75 | 139 | RKQYYK [6mer-1-57]
76 | 149 | RRWQTR [6mer-1-49]
77 | 131 | RRRFLR [6mer-1-52]
78 | 121 | KKSRRR [6mer-1-65]
79 | 148 | KKWVSR [6mer-1-63]

Source: US20250011363A1, “OPTIMIZED SHORTENED PEPTIDE THAT BINDS TO ACETYLCHOLINE RECEPTOR, AND USE THEREOF” (SKINMED CO., LTD., priority 2021, published 2025)
